In patent publication US20110212108A1, “NEUREGULIN/ERBB SIGNALING AND INTEGRIN” (THE REGENTS OF THE UNIVERSITY OF CALIFORNIA, priority 2008, published 2011):
Entries after “also recorded” stand apart in the source; their conditions may differ. Where two headings read alike, the source gives them in different places.

Columns and labels:
integrin αvβ3 = target: T1, integrin αvβ3 (Homo sapiens, UniProt P05106+P06756); test: ELISA-type binding of soluble recombinant integrin αvβ3 to immobilized NRG1 fragments; conditions: soluble αvβ3, 1 mM Mn2+, room temperature
T1 construct: Soluble recombinant integrin αvβ3 (5 μg/ml) was added to the wells; made in house
Procedure: FIG. 1. […] The isolated EGF-like domain of Wt NRG1 was immobilized to wells of 96-well titer plates. The concentrations of the coating solution are shown. Soluble recombinant integrin αvβ3 (5 μg/ml) was added to the wells in the presence of 1 mM Mn^2+ and incubated for 2 h at room temperature. After washing the wells bound αvβ3 was determined by using anti-β3 antibody and HRP-conjugated anti-mouse IgG. The data is shown as means+/−SEM of triplicate experiments. FIG. 7. […] Wt GST-NRG1 (175-222) and the 2KE mutant of GST-NRG1 (175-222) were immobilized to wells of 96-well titer plates. The concentrations of the coating solution are shown. Soluble recombinant integrin αvβ3 (5 μg/ml) was added to the wells in the presence of 1 mM Mn^2+ and incubated for 2 h at room temperature. After washing, the wells bound αvβ3 was determined by using anti-β3 antibody and HRP-conjugated anti-mouse IgG. The data are shown as means+/−SD of triplicate experiments. […] Direct αvβ3-NRG (175-222) interaction: It has been well established that the EGF-like domain of the NRGs is sufficient to specifically activate ErbB receptors and to induce cellular responses in culture. To generate GST-NRG1 EGF-like domain fusion protein, the cDNA fragment of the EGF-like domain of NRG1 was amplified by PCR and subcloned into PGEX-2T vector to generate GST-NRG1 EGF-like domain fusion protein (designated GST-NRG1 (175-222)) in E. coli BL21. The fusion protein was purified in glutathione-affinity chromatography. The affinity resin was extensively washed with 1% Triton X-114 to remove endotoxin before eluting the protein. It was tested, in the present invention, whether soluble recombinant integrin αvβ3 binds to GST-NRG1 (175-222) that is immobilized to plastic wells (ELISA-type assay). […] Cell adhesion and soluble integrin binding assays were performed as described previously (Mori, et al., 2008). NRG1α (175-241) was immobilized to wells of 96-well microtiter plate overnight at 4° C. in 0.1 M carbonate buffer, pH 2 9.4. Remaining protein binding sites were blocked by incubating with 200 μl of 0.1% BSA in PBS for 60 min at room temperature. Wells were then incubated with soluble integrin αvβ3 in 50 μl in Hepes-Tyrode's buffer supplemented with 1 mM Mn2+ at room temperature for 60 min. After rinsing the wells with the same buffer, bound integrins were determined by horseradish peroxidase (HRP)-conjugated anti-His tag mouse IgG and substrate 3,3′,5,5′-tetramethylbenzidine of HRP.

[1] = target: T2, K562 cells that express human αvβ3 (αvβ3-K562) (Homo sapiens, UniProt P05106+P06756); test: Cell adhesion assay, αvβ3-K562 cells; format: cell-based
T2 construct: expressed in transfected cells; host or cells: K562
Procedure: (§1) FIG. 5. […] Adhesion assays was performed using αvβ3-K562 (left) or mock transfected cells (right) as described herein. The data is shown as means+/−SEM of triplicate experiments.
CHO or K562 cells expressing different recombinant integrins were previously known and available (Zhang et al. 1998; Tarui et al. 2006). Labeling of proteins with FITC or […] was performed according to manufacturers' instructions. Flow cytometry was performed as described above. Also, adhesion assays as described above were used to confirm the findings using flow cytometry.
(§2) Cell adhesion and soluble integrin binding assays were performed as described previously (Mori, et al., 2008). NRG1α (175-241) was immobilized to wells of 96-well microtiter plate overnight at 4° C. in 0.1 M carbonate buffer, pH 2 9.4. Remaining protein binding sites were blocked by incubating with 200 μl of 0.1% BSA in PBS for 60 min at room temperature. Wells were then incubated with soluble integrin αvβ3 in 50 μl in Hepes-Tyrode's buffer supplemented with 1 mM Mn2+ at room temperature for 60 min. After rinsing the wells with the same buffer, bound integrins were determined by horseradish peroxidase (HRP)-conjugated anti-His tag mouse IgG and substrate 3,3′,5,5′-tetramethylbenzidine of HRP.

[2] = target: T3, CHO cells expressing β1-3-1 (β1-3-1-CHO cells) (Homo sapiens, UniProt P05556, DEL209-212/INS207YDMKT); test: Cell adhesion assay, β1-3-1-CHO cells; format: cell-based
T3 construct: expressed in transfected cells; host or cells: CHO
Procedure: FIG. 3. Adhesion of CHO cells that express human β1 (β1-CHO) or β1-3-1 (β1-3-1-CHO) to wt NRG1 (175-222). The β1-3-1 mutation changes the specificity of β1 integrins to that of β3 integrins. Cell adhesion was performed as described herein. β1-3-1-CHO cells adhered to wt NRG1 (175-222) and this binding was blocked by anti-human β1 antibody AIIB2, but not by purified mouse IgG (mIgG). BSA: BSA as a control was coated instead of NRG1 (175-222).
FIG. 6. […] Adhesion assays was performed using β1-3-1-CHO cells as described herein. Data are shown as means+/−SEM of triplicate experiments.
The β1-3-1 mutation: To determine if NRG1 (175-222) binds to αvβ3 like other known αvβ3 ligands (e.g., vitronectin and fibrinogen), a mutant of β1 having a ligand specificity of β3 (Takagi et al. 1997) was used. […] It was shown that when a disulfide-linked five-residue sequence of β1 I-like domain (residues 177-183) of αvβ1 is switched with a corresponding sequence in β3 integrin (designated the β1-3-1 mutant), ligand-binding specificity of the mutated integrin αvβ1-3-1 is altered to that of αvβ3 (Takagi et al. 1997). […] The adhesion of β1-3-1-CHO cells to NRG1 (175-222) was blocked anti-β1 antibody AIIB2 (FIG. 3). […] These findings indicate that NRG1 (175-222) binds to the ligand-binding site of αvβ3, and that the specificity loop plays a role in NRG1 binding to αvβ3.
as §2

[3] = test system: mock-transfected K562 cells; test: Cell adhesion assay, mock-transfected K562 cells; format: cell-based, human
Procedure: as §1, §2

T2 sequence (P06756 31-1048): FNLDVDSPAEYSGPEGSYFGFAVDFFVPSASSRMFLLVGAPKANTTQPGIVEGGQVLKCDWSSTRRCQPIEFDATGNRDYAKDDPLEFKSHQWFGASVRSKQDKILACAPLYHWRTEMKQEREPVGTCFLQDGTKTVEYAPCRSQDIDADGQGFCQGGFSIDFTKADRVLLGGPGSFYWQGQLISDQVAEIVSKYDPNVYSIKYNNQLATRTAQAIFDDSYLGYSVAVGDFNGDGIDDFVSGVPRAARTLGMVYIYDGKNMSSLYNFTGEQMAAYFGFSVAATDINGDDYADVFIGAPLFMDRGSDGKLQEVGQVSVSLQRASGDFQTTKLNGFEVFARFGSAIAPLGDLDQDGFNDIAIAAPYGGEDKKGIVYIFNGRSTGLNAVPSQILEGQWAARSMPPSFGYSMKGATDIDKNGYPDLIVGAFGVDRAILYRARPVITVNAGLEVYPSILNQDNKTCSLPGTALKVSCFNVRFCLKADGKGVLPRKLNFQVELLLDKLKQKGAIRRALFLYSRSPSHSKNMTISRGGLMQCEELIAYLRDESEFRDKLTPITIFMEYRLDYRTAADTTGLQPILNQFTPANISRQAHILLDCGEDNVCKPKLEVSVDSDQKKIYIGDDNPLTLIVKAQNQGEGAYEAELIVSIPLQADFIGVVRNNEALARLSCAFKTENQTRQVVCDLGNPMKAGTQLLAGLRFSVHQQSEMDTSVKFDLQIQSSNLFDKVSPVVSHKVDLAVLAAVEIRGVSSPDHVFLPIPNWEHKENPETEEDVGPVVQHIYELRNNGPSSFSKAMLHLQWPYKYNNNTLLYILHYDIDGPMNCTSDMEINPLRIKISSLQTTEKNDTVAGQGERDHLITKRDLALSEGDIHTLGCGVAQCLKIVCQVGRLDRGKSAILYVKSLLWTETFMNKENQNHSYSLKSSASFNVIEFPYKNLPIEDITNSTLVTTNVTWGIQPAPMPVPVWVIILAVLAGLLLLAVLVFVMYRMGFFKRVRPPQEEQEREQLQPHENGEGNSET
T2 sequence (P05106 27-788): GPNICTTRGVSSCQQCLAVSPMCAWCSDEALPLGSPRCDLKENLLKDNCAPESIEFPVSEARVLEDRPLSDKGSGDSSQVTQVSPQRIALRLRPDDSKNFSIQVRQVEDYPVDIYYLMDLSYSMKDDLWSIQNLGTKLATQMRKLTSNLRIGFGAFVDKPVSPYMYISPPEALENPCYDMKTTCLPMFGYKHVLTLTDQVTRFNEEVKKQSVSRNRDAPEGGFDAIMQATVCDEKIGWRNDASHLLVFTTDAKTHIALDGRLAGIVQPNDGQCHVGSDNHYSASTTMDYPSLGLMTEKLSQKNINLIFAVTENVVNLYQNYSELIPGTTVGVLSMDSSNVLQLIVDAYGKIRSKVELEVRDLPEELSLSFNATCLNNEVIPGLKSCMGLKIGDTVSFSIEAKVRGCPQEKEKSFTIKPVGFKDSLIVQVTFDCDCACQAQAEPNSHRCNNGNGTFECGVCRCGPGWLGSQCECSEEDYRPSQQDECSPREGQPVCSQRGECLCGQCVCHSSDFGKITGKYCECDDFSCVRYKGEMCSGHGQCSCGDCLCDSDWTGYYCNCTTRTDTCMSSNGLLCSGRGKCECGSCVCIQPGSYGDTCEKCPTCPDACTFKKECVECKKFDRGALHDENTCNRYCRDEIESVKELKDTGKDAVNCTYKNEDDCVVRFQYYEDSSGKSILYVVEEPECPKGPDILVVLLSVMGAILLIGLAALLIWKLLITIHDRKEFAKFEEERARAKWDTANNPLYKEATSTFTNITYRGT
T1 sequence (P06756 31-992 limits assumed): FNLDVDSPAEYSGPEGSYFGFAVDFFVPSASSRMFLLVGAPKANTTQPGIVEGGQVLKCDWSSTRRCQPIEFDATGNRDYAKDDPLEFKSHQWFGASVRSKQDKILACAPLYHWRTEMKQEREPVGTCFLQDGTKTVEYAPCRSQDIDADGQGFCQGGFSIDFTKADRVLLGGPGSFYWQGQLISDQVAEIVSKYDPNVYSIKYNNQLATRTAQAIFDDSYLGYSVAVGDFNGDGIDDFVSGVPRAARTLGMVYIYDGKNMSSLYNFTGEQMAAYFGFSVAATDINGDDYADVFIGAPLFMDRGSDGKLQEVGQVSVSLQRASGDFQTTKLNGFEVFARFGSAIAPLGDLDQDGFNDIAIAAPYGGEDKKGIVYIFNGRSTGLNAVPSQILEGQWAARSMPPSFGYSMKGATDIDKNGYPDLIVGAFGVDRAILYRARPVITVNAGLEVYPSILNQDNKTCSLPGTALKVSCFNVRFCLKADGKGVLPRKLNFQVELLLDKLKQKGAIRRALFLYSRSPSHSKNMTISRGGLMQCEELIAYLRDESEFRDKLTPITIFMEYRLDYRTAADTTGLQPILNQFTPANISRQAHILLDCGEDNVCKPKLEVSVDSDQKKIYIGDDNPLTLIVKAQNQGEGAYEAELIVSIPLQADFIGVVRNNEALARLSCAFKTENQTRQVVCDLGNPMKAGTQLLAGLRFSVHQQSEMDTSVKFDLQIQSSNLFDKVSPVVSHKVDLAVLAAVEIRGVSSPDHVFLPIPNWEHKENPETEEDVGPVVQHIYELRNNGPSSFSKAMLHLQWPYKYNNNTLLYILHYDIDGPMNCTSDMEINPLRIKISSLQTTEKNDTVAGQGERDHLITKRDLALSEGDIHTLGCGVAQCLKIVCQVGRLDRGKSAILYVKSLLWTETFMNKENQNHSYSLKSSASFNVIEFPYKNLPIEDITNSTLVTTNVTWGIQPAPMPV
T1 sequence (P05106 27-718 limits assumed): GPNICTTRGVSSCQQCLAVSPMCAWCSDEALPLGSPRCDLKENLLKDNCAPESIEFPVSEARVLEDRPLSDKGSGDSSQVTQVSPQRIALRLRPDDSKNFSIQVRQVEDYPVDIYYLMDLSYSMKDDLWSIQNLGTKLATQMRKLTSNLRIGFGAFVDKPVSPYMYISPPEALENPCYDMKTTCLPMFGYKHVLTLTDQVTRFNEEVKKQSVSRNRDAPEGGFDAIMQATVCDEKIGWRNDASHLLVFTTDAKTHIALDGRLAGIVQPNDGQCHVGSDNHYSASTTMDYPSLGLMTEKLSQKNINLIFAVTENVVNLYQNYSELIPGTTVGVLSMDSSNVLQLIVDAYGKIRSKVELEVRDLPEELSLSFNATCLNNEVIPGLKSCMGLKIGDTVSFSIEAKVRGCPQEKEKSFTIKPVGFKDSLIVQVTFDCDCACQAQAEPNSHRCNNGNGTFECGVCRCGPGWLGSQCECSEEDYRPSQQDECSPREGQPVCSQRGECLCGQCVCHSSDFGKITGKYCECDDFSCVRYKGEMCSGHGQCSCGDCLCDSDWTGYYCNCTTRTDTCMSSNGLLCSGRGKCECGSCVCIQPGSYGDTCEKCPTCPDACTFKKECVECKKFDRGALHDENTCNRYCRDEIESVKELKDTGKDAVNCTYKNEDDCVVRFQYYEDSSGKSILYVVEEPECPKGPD
T3 sequence (P05556 with tags, fused parts or gaps INS207YDMKT/DEL209-212): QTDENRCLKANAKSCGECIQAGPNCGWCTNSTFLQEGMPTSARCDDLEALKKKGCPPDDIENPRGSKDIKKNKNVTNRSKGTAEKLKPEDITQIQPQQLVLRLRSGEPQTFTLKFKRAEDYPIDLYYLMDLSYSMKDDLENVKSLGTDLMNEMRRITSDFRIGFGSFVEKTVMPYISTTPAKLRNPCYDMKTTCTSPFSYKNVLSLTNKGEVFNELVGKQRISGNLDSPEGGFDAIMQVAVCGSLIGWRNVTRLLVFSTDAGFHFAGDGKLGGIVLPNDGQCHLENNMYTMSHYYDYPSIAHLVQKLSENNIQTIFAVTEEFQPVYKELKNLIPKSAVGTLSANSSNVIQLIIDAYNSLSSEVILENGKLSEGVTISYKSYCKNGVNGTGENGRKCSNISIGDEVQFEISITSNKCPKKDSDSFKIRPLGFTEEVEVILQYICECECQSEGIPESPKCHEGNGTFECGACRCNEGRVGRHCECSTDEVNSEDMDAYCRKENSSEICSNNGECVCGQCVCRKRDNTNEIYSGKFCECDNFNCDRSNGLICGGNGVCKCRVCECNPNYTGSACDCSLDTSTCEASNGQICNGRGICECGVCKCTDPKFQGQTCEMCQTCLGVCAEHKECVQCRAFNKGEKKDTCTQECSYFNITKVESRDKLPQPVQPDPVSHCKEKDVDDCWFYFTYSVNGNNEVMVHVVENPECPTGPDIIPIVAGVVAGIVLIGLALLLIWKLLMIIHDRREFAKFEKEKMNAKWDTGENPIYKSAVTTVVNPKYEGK

Molecule	Binding of soluble recombinant integrin αvβ3 to the immobilized protein (integrin αvβ3)	Adhesion of αvβ3-K562 cells to the immobilized protein [1]	Adhesion of β1-3-1-CHO cells to the immobilized protein [2]	Binding of soluble recombinant integrin αvβ3 to the immobilized protein (integrin αvβ3; listed as NRG (175-222))	Adhesion of αvβ3-K562 cells to the immobilized protein ([1]; listed as NRG1 (175-222))	Adhesion of mock-transfected K562 cells to the immobilized protein [3]	Adhesion of αvβ3-K562 cells to the immobilized protein ([1]; listed as NRG1α (175-241))	Adhesion of αvβ3-K562 cells to the immobilized protein ([1]; listed as wt NRG1α (175-241))	Adhesion of β1-3-1-CHO cells to the immobilized protein ([2]; listed as NRG1α (175-241))	Adhesion of β1-3-1-CHO cells to the immobilized protein ([2]; listed as wt NRG1α (175-241))
3KE (175-222): NRG1 (175-222) with Lys181/Lys185/Lys187 mutated to Glu; GTSHLVECAEEEETFCVNGGECFMVKDLSNPSRYLCKCQPGFTGARCT (SEQ ID NO:11) (integrin-binding site within human neuregulin, 3KE mutant, short version)	bound to the 3KE (175-222) mutant (isolated EGF-like domain) in a dose-dependent manner; also recorded: much lower affinity to αvβ3	did not bind; also recorded: defective in binding to αvβ3-K562 cells	defective in binding to β1-3-1 integrins							
wt NRG1 (175-222): wild type human neuregulin 1 fragment, EGF-like domain, residues 175-222 of SEQ ID NO:4 (SEQ ID NO:3) (GTSHLVKCAEKEKTFCVNGGECFMVKDLSNPSRYLCKCQPGFTGARCT; integrin-binding site within human neuregulin 1 EGF-like region and portion of alpha domain, residues 175-222 of human neuregulin 1 alpha) [reference compound]		bound to wt NRG1 (175-222)	bound to NRG1 (175-222)	bound to recombinant soluble αvβ3	adhered in a dose-dependent manner	did not				
WT NRG1α (175-241): wild type human neuregulin 1 fragment, residues 175-241 of SEQ ID NO:4 (SEQ ID NO:5), entire EGF-like motif and α domain (protein, integrin-binding site within human neuregulin, residues 175-241of human neuregulin 1alpha, long version) GTSHLVKCAEKEKTFCVNGGECFMVKDLSNPSRYLCKCQPGFTGARCTENVPMKVQNQEKAEELYQK	bound to GST-NRG1α (175-241) (isolated EGF-like domain) in a dose-dependent manner					did not	adhered in a dose-dependent manner	bound to wt NRG1α (175-241)	bound to NRG1α (175-241)	bound to wt NRG1α (175-241)
3KE (175-241): NRG1α (175-241) with Lys181/Lys185/Lys187 mutated to Glu, SEQ ID NO:6 (3KE, long version) (protein, integrin-binding site within human neuregulin, residues 175-241of human neuregulin 1alpha, long version, 3KE mutant) GTSHLVECAEEEETFCVNGGECFMVKDLSNPSRYLCKCQPGFTGARCTENVPMKVQNQEKAEELYQK		little or no adhesion	little or no adhesion							
